This is an account of results in paper PMC2911661.

The target in the experiment is SH2 domain of SHC1 (human) (UniProt P29353). Kind of experiment: peptide or protein array.
Sequence of UniProt P29353 (P29353 488-579): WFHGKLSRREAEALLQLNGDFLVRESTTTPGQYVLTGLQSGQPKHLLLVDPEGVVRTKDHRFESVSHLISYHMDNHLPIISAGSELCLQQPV

With “singly phosphorylated Tarp D peptide (18 amino acids around the ENIYE motif)”, the Kd (as a rule, a measure of binding affinity in units of concentration) is below 200 nM.
